Target: SARS-CoV-2 S protein S1 (SARS-CoV-2, UniProt P0DTC2 16-685)

B1: monoclonal antibody (mAb) m31A7 (antibody, V domains shown)
VH: EVQLQQSGPEMVKPGASVKISCKTSGYTFTEYTIYWVKQSHGKSLEWLGGINPNIGDTTYNQKFKGKATLTVDTSSSTAYMELRSLTSEDSAVYYCAREVYNYSFAYWGQGTLVTVSA
VL: DIVMSQSPSSLAVSVGEKVTMSCKSSQSLLYSSNQKNYLAWYQQKLGQTPKLLIYWASSRESGVPDRFTGSGSGTDFTLTISSVRAEDLAVYYCQQYYRYPLTFGVGTKLELKR
EC50: 0.0235 nM

From US20240016917A1 (ACADEMIA SINICA, published 2024)
